In patent US20240083986A1 (published 2024):

Experiments:
[1] = target: T1, Apple (Mal d 1, MyBiosource, Cat #MBS1224919) (Apple, UniProt P43211 2-159, limits assumed); assay: SPR, mAb captured via anti-hFc, 25 C;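 further: biacore 4000 SPR, related allergen binding to purified anti-Bet v 1 mAbs, HBS-ET running buffer pH 7.4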
T1 construct: Bought reagent
T1 sequence (looked up): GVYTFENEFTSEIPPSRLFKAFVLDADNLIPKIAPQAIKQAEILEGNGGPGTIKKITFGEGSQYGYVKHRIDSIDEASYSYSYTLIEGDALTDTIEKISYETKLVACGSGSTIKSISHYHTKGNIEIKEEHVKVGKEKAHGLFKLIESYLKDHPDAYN

[2] = target: T2, CHO produced recombinant Bet v 1 containing a S85A mutation with a C-terminal myc-myc hexahistidine tag … (Betula verrucosa (birch)); assay: SPR, mAb captured via anti-hFc, 37 C
T2 chain: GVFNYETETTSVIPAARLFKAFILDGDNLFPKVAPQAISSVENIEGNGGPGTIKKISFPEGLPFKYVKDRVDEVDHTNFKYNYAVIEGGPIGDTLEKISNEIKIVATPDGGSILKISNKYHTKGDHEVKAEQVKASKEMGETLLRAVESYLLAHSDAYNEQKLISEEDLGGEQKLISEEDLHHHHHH

[3] = target: T3, Celery (Api g 1, MyBiosource, Cat #MBS1171376) (Celery, UniProt P49372 1-154, limits assumed); assay: SPR, mAb captured via anti-hFc, 25 C;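 further: Anti-Bet v 1 monoclonal antibodies probed on a Biacore 4000 in HBS-ET buffer at pH 7.4, rate constants fitted to a 1:1 model with mass transport limitation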
T3 construct: Bought reagent
T3 sequence (looked up): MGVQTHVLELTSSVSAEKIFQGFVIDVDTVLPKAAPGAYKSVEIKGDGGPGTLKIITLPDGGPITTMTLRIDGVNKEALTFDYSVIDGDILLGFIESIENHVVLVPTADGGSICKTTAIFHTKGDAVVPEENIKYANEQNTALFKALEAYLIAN

[4] = target: T4, Alder (Aln g 1, MyBiosource, Cat #MBS1041484) (Alder, UniProt P38948 2-160, limits assumed); assay: SPR, mAb captured via anti-hFc, 25 C
T4 construct: Bought reagent
T4 sequence (looked up): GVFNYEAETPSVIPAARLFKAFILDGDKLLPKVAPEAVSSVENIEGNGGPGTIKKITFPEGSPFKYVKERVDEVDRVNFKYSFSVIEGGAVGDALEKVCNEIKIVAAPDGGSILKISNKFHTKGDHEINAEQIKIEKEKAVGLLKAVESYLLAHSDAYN

[5] = target: T2, CHO produced recombinant Bet v 1 …; assay: SPR, mAb captured via anti-hFc, 25 C
[6] = target: T5, European Hornbeam (Car b 1 isoform 2, MyBiosource, Cat #MBS1043940) (European Hornbeam, UniProt P38950 2-160, limits assumed); assay: SPR, mAb captured via anti-hFc, 25 C;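 further: related allergen binding to captured purified monoclonal antibodies, rate constants fitted to a one-to-one model with mass transport limitation, KD and t½ calculated from the rates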
T5 construct: Bought reagent
T5 sequence (looked up): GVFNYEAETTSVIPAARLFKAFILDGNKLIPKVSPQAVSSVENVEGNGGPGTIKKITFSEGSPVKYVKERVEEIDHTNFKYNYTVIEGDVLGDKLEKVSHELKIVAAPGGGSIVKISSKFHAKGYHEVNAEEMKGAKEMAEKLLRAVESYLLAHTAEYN

[7] = target: T6, European Hornbeam (Car b 1 isoform 1A & 1B, MyBiosource, Cat #MBS1200018) (European Hornbeam, UniProt P38949 2-160); assay: SPR, mAb captured via anti-hFc, 25 C
T6 construct: Bought reagent
T6 sequence (looked up): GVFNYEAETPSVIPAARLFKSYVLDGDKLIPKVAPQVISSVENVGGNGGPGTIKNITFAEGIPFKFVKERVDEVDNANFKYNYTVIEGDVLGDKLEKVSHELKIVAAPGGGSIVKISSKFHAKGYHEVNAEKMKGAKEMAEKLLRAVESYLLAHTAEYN

B1: H4H17027P (antibody, human IgG4, V domains shown)
VH: EVQLVESGGGLVQPGGSLRLSCAASGFTFRNYAMHWVRQAPGEGLEWVAAIYRNSDSIDYADSVKGRFTISRDNAKNSLYLQMNSLKTEDTALYYCAKDEGFLEYFDSWGQGTLVTVSS
VL: EIVLTQSPGTLSLSPGERASLSCRASQSVSSSFLAWYQQKPGQAPRLLIYGVSSRFIGIPDRFSGGGSGTDFTLTITRLEPEDFAVYYCQQYGRSPWTFGQGTKVEIK
notes: Fully human antibody with human IgG4 Fc (H4H prefix)
B1 was tested, and the “100 nM Analyte Bound (RU)” value [1] was 0 RU, the binding result [1] was “no binding (tested: 100 nM)” and the “100 nM natural Bet v 1-MHH Bound (RU)” value [2] was 78 RU. The Kd [2] was 6.8 nM, the koff [2] was 0.00116 s⁻¹ and the kon [2] was 171000 M⁻¹ s⁻¹. For the same binder, the t½ [2] was 9.9 min, the “100 nM Analyte Bound (RU)” value [3] was 0 RU and the binding result [3] was “no binding (tested: 100 nM)”. The “100 nM Analyte Bound (RU)” value [4] was 9 RU, the Kd [4] was 69.2 nM and the koff [4] was 0.00643 s⁻¹. The kon [4] was 92900 M⁻¹ s⁻¹, the t½ [4] was 1.8 min and the “100 nM natural Bet v 1- MMH Bound (RU)” value [5] was 63 RU. For the same binder, the Kd [5] was 2.9 nM, the koff [5] was 0.000319 s⁻¹ and the kon [5] was 110000 M⁻¹ s⁻¹. The t½ [5] was 36 min, the “100 nM Analyte Bound (RU)” value [6] was 42 RU and the Kd [6] was 98.9 nM. The koff [6] was 0.00577 s⁻¹, the kon [6] was 58400 M⁻¹ s⁻¹ and the t½ [6] was 2 min. For the same binder, the “100 nM Analyte Bound (RU)” value [7] was 41 RU, the Kd [7] was 214 nM and the koff [7] was 0.00673 s⁻¹. It also gave a kon [7] of 31400 M⁻¹ s⁻¹ and a t½ [7] of 1.7 min.

B2: H4H17031P (antibody, human IgG4, V domains shown)
VH: QVQLQQWGAGLLKPSETLSLTCVVYGESFGNYHWNWIRQSPGKRLEWIGEINQNGHTNYNPSLKSRVTISVDTSKIQFSLRLNSVTAADTAVYFCARGHNYVNSYFGLDVWGQGTTVTVSS
VL: EIVMTQSPATLSVSPGERATLSCRTSQSVSISLAWYQRKPGQAPRLLIFGSSTRATGVPARFSGSGSGTEFTLTISSLQSEDFAVYYCQQYNNWPYTFGQGTKLEIK
notes: as for B1
With B2 the “100 nM Analyte Bound (RU)” value [1] was 0 RU, the binding result [1] was “no binding (tested: 100 nM)” and the “100 nM natural Bet v 1-MHH Bound (RU)” value [2] was 71 RU. For the same binder, the Kd [2] was 14.6 nM, the koff [2] was 0.00406 s⁻¹ and the kon [2] was 278000 M⁻¹ s⁻¹. The t½ [2] was 2.8 min, the “100 nM Analyte Bound (RU)” value [3] was 0 RU and the binding result [3] was “no binding (tested: 100 nM)”. For the same binder, the “100 nM Analyte Bound (RU)” value [4] was 59 RU, the Kd [4] was 45 nM and the koff [4] was 0.00238 s⁻¹. For the same binder, the kon [4] was 52900 M⁻¹ s⁻¹, the t½ [4] was 4.8 min and the “100 nM natural Bet v 1- MMH Bound (RU)” value [5] was 63 RU. The Kd [5] was 5.61 nM, the koff [5] was 0.00105 s⁻¹ and the kon [5] was 187000 M⁻¹ s⁻¹. For the same binder, the t½ [5] was 11 min, the “100 nM Analyte Bound (RU)” value [6] was 160 RU and the Kd [6] was 13.1 nM. It also gave a koff [6] of 0.00517 s⁻¹, a kon [6] of 395000 M⁻¹ s⁻¹ and a t½ [6] of 2.2 min. For the same binder, the “100 nM Analyte Bound (RU)” value [7] was 126 RU, the Kd [7] was 13.8 nM and the koff [7] was 0.00111 s⁻¹. For the same binder, the kon [7] was 80400 M⁻¹ s⁻¹ and the t½ [7] was 10 min.

B3: H4H17028P (antibody, human IgG4, V domains shown)
VH: QVQLVESGGGVVQPGRSLRLSCAASGFTFSRYAIHWVRQAPGKGLEWVAVISYDGDDKYYGDSVKGRFTISRDNSKTMVYLHMNSLRTEDTAVYYCAKDGYSLYGKDYFDYWGQGTLVTVSS
VL: EIVLTQSPGTLPLSPGERATLSCRASQSITNSYLAWYQQKPDQAPRLLIYGASSRATGIPDRFSGSESGTDFTLTISRLEPEDFAVYYCQQYVRSPWTFGQGTKVEIK
notes: as for B1
In the case of B3, the “100 nM Analyte Bound (RU)” value [1] is reported as 1 RU, the binding result [1] is reported as “no binding (tested: 100 nM)” and the “100 nM natural Bet v 1-MHH Bound (RU)” value [2] is reported as 77 RU. For the same binder, the Kd [2] was 2.32 nM, the koff [2] was 0.00235 s⁻¹ and the kon [2] was 1.01e+06 M⁻¹ s⁻¹. For the same binder, the t½ [2] was 4.9 min, the “100 nM Analyte Bound (RU)” value [3] was 1 RU and the binding result [3] was “no binding (tested: 100 nM)”. The “100 nM Analyte Bound (RU)” value [4] was 16 RU, the Kd [4] was 36.7 nM and the koff [4] was 0.0019 s⁻¹. For the same binder, the kon [4] was 51700 M⁻¹ s⁻¹, the t½ [4] was 6.1 min and the “100 nM natural Bet v 1- MMH Bound (RU)” value [5] was 71 RU. For the same binder, the Kd [5] was 0.854 nM, the koff [5] was 0.000693 s⁻¹ and the kon [5] was 811000 M⁻¹ s⁻¹. For the same binder, the t½ [5] was 17 min, the “100 nM Analyte Bound (RU)” value [6] was 95 RU and the Kd [6] was 45 nM. For the same binder, the koff [6] was 0.00437 s⁻¹, the kon [6] was 97100 M⁻¹ s⁻¹ and the t½ [6] was 2.6 min. For the same binder, the “100 nM Analyte Bound (RU)” value [7] was 159 RU, the Kd [7] was 2.43 nM and the koff [7] was 0.000511 s⁻¹. For the same binder, the kon [7] was 210000 M⁻¹ s⁻¹ and the t½ [7] was 23 min.

B4: H4H17015P (antibody, human IgG4, V domains shown)
VH: QVQLQESGPGLVKPSQTLSLTCTVSGGSISSADHYWSWIRQQPGKGLEWIGYISYRGTTYYNPTLESRVSISVDTFKNQFSLMLHSVTVADTAVYYCAKVLQGLVRFRDYGFDVWGQGTTVTVSS
VL: DIQLTQSPPFLSASVGDRVTITCWASQDISSYLAWYQQNPGKSPKLLIYDAFTLHTGVPSRFSGSGSGTEFTLTISSLQPEDFATFYCQHLYSFPFTFGPGTKVDIK
notes: as for B1
B4 was tested, and the “100 nM Analyte Bound (RU)” value [1] was 0 RU, the binding result [1] was “no binding (tested: 100 nM)” and the “100 nM natural Bet v 1-MHH Bound (RU)” value [2] was 89 RU. For the same binder, the Kd [2] was 2.02 nM, the koff [2] was 0.000899 s⁻¹ and the kon [2] was 445000 M⁻¹ s⁻¹. The t½ [2] was 13 min, the “100 nM Analyte Bound (RU)” value [3] was 0 RU and the binding result [3] was “no binding (tested: 100 nM)”. The “100 nM Analyte Bound (RU)” value [4] was 8 RU, the binding result [4] was “no binding (tested: 100 nM)” and the “100 nM natural Bet v 1- MMH Bound (RU)” value [5] was 76 RU. It also gave a Kd [5] of 1.03 nM, a koff [5] of 0.000281 s⁻¹ and a kon [5] of 272000 M⁻¹ s⁻¹. The t½ [5] was 41 min, the “100 nM Analyte Bound (RU)” value [6] was 2 RU and the binding result [6] was “no binding (tested: 100 nM)”. The “100 nM Analyte Bound (RU)” value [7] was 0 RU and the binding result [7] was “no binding (tested: 100 nM)”.
